10 substances from patent US20240132578A1 can be followed below.

Experiment in all cases: cell-based or functional assay
Experiment [1] concerns the target HIV-1 Env of pseudovirus ZM214 (HIV-1).
The target of experiment [2] is HIV-1 Env of pseudovirus CAP45 (HIV-1).
The target in experiment [3] is HIV-1 Env of pseudovirus PVO.4 (HIV-1).
In experiment [4] the target is HIV-1 Env of isolate 92BR020 (subtype B), on pseudovirus (HIV-1).
The target of experiment [5] is HIV-1 Env of isolate JRFL (subtype B), on pseudovirus (HIV-1).
The target of experiment [6] is HIV-1 envelope glycoprotein (Env) of isolate MG RM-A-006 (HIV-1).
In experiment [7] the target is HIV-1 MGRM-C-027 envelope glycoprotein (Env), clade C pseudovirus (HIV-1).
Experiment [8] has as its target HIV-1 JRCSF envelope glycoprotein (Env), clade B pseudovirus (HIV-1).
Experiment [9] concerns the target HIV-1 92BR020 envelope glycoprotein (Env), clade B pseudovirus (HIV-1).
Experiment [10] concerns the target HIV-1 envelope glycoprotein (Env) of isolate MGRM-AG-005 (HIV-1).
Experiment [11] addresses HIV-1 92BR020 Env (HIV-1 isolate 92BR020 (clade B)).
Experiment [12] deals with HIV-1 MGRM-D-001 Env (HIV-1 isolate MGRM-D-001 (clade D)).
The target of experiment [13] is HIV-1 92RW020 Env (HIV-1 isolate 92RW020 (clade A)).
For experiment [14], the target named is HIV-1 MGRM-AG-005 envelope glycoprotein (Env) (HIV-1).
The target of experiment [15] is HIV-1 APV17 envelope glycoprotein (Env) (HIV-1).
The target in experiment [16] is HIV-1 92BR020 envelope glycoprotein (Env) (HIV-1).
In experiment [17] the target is HIV-1 92RW020 envelope glycoprotein (Env) (HIV-1).
Experiment [18] addresses HIV-1 JR-CSF Env R315A (HIV-1 (isolate JR-CSF, clade B)) (UniProt P20871).
Experiment [19] addresses HIV-1 APV13 Env (pseudovirus) (HIV-1).
Experiment [20] addresses HIV-1 MGRM-C-028 Env (pseudovirus) (HIV-1).
For experiment [21], the target named is HIV-1 APV17 Env (pseudovirus) (HIV-1).
The target of experiment [22] is HIV-1 92BR020 Env (pseudovirus) (HIV-1).
Experiment [23] addresses HIV-1 94UG103 Env (pseudovirus) (HIV-1).
For experiment [24], the target named is HIV-1 MGRM-D-018 envelope glycoprotein (Env) on virus (HIV-1, clade D, isolate MGRM-D-018).
Experiment [25] deals with HIV-1 APV6 envelope glycoprotein (Env) on virus (HIV-1, clade B, isolate APV6).
The target in experiment [26] is HIV-1 MGRM-C-026 envelope glycoprotein (Env) on virus (HIV-1, clade C, isolate MGRM-C-026).
The target of experiment [27] is HIV-1 Env of isolate MGRM-A-010 (clade A) (HIV-1).
Experiment [28] has as its target HIV-1 Env of isolate 92TH021 (clade AE) (HIV-1).
Experiment [29] has as its target HIV-1 Env of isolate MGRM-C-027 (clade C) (HIV-1).
Experiment [30] deals with HIV-1 Env of isolate 92RW020 (clade A) (HIV-1).
Experiment [31] concerns the target HIV-1 Env of isolate 93IN905 (clade C) (HIV-1).

Broadly, the IC50 is the point on the concentration scale where inhibition reaches its midpoint.

1443_C16 (PG16) (TCN-116) (antibody), sequence (VH): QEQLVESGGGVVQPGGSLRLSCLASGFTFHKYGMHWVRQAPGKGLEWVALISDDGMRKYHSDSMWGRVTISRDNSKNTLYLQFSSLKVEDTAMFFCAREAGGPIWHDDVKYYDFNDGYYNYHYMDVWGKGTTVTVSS
1443_C16 (PG16) (TCN-116) (antibody), sequence (VL): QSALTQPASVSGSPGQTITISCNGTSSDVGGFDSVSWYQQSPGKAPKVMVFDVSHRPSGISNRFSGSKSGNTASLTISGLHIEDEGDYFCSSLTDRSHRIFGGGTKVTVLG
5329_C19 (PGT-136) (antibody), sequence (VH): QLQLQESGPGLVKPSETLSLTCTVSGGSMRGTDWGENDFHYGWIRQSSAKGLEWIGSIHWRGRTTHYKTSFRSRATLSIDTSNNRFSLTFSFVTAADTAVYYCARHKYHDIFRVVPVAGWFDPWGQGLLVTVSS
5329_C19 (PGT-136) (antibody), sequence (VL): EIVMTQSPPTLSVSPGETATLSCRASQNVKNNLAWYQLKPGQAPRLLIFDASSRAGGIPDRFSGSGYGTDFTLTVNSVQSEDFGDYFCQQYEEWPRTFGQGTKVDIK

Turning to 1443_C16 (PG16) (TCN-116) (antibody), the IC50, pseudovirus neutralization (TZM-bl assay) was greater than 25 µg/mL in [1], less than 0.01 µg/mL in experiment [2] and 12.3 µg/mL in experiment [3].

As to PGV04 (antibody), the values for the IC50, single-round pseudovirus neutralization in experiment [4] and in experiment [5] were 0.25 µg/mL and 0.032 µg/mL, respectively. Besides, the IC50 in experiment [6] came to 0.244 µg/mL.

For 4858_P08 (PGT-123) (antibody), in [7], the IC50, pseudovirus neutralization was 0.0169 µg/mL; the IC80 (pseudovirus neutralization) worked out at 0.149 µg/mL; the IC90 (pseudovirus neutralization) is greater than 10 µg/mL; the IC95 (pseudovirus neutralization) was greater than 10 µg/mL. For the same substance, in experiment [8], the IC50, pseudovirus neutralization is 0.0423 µg/mL; the IC80 (pseudovirus neutralization) came to 0.143 µg/mL; the IC90 (pseudovirus neutralization) came out at 0.289 µg/mL; the IC95 (pseudovirus neutralization) amounted to 0.547 µg/mL. In experiment [9], this substance had an IC50, pseudovirus neutralization of 0.013 µg/mL; an IC80 (pseudovirus neutralization) of 0.039 µg/mL; an IC90 (pseudovirus neutralization) of 0.0741 µg/mL; an IC95 (pseudovirus neutralization) of 0.134 µg/mL.

In experiment [10], 5141_B17 (PGT-126) (antibody) showed a Neutralization IC80 greater than 10 µg/mL, a Neutralization IC90 greater than 10 µg/mL, a Neutralization IC95 greater than 10 µg/mL and a neutralization IC50 of 1.35 µg/mL.

Take 4838_L06 (PGT-121) (antibody): in [11], the Neutralization IC80 is 0.0532 µg/mL and the Neutralization IC90 was found to be 0.101 µg/mL. In experiment [12], this substance registered a Neutralization IC80 of 3.29 µg/mL, a Neutralization IC90 of 6.26 µg/mL and a Neutralization IC95 of 9.39 µg/mL. In [13], the Neutralization IC80 is 0.0188 µg/mL, the Neutralization IC90 amounted to 0.0361 µg/mL and the Neutralization IC95 came to 0.0671 µg/mL.

For the substance 5329_C19 (PGT-136) (antibody), in experiment [14], the Neutralization IC80 is greater than 10 µg/mL, the Neutralization IC90 is greater than 10 µg/mL, the Neutralization IC95 was greater than 10 µg/mL and the neutralization IC50 was greater than 10 µg/mL. Also, in [15], the Neutralization IC80 was greater than 10 µg/mL, the Neutralization IC90 was greater than 10 µg/mL, the Neutralization IC95 is greater than 10 µg/mL and the neutralization IC50 was greater than 10 µg/mL. In experiment [16], the Neutralization IC80 was greater than 10 µg/mL, the Neutralization IC90 is greater than 10 µg/mL, the Neutralization IC95 was greater than 10 µg/mL and the neutralization IC50 is greater than 10 µg/mL. In experiment [17], the Neutralization IC80 was greater than 10 µg/mL, the Neutralization IC90 is greater than 10 µg/mL, the Neutralization IC95 is greater than 10 µg/mL and the neutralization IC50 turned out to be 0.738 µg/mL.

Substance 5343_B08 (PGT-135) (antibody) came in with a Fold IC50 increase relative to wild-type in experiment [18] of 1.8 fold.

On to 5123_A06 (PGT-125) (antibody), for which the Neutralization by PGT-125, IC50 in experiment [19] is 0.0128 µg/mL; in experiment [20], 5.78 µg/mL; in experiment [21], 7.31 µg/mL; in experiment [22] it was 0.0214 µg/mL; in [23] it was 0.0124 µg/mL. In addition, the Neutralization by PGT-125, IC80 is 0.0414 µg/mL in [19]; greater than 10 µg/mL in experiment [20]; greater than 10 µg/mL in [21]; 0.0738 µg/mL in [22]; 0.0373 µg/mL in experiment [23]. Further, the Neutralization by PGT-125, IC90 was 0.0821 µg/mL in experiment [19]; greater than 10 µg/mL in [20]; greater than 10 µg/mL in experiment [21]; 0.156 µg/mL in experiment [22]; 0.071 µg/mL in experiment [23]. Also, the Neutralization by PGT-125, IC95 in [19] is 0.154 µg/mL; in [20] it was greater than 10 µg/mL; in experiment [21], greater than 10 µg/mL; in [22], 0.323 µg/mL; in [23], 0.129 µg/mL.

In [24], 4877_D15 (PGT-122) (antibody) returned a Neutralization IC80 of 0.035 µg/mL, a Neutralization IC90 of 0.0674 µg/mL, a Neutralization IC95 of 0.125 µg/mL and a neutralization IC50 of 0.0115 µg/mL. In [25], the Neutralization IC80 came out at 0.351 µg/mL, the Neutralization IC90 stood at 0.779 µg/mL, the Neutralization IC95 is 1.55 µg/mL and the neutralization IC50 worked out at 0.0851 µg/mL. Further, in experiment [26], the Neutralization IC80 amounted to 0.037 µg/mL, the Neutralization IC90 was 0.0849 µg/mL, the Neutralization IC95 was determined as 0.181 µg/mL and the neutralization IC50 was found to be 0.0089 µg/mL.

Take 1496_C09 (PG9) (TCN-109) (antibody): the Neutralization IC80 in [27] worked out at 0.121 µg/mL; in experiment [28], 0.448 µg/mL; in [30], 1.04 µg/mL; in [31], 0.308 µg/mL. The Neutralization IC90 stood at 0.242 µg/mL in experiment [27], 1.07 µg/mL in [28], 3.4 µg/mL in [30] and 0.981 µg/mL in experiment [31]. The Neutralization IC95 in experiment [27] was found to be 0.456 µg/mL; in experiment [28], 2.43 µg/mL; in experiment [31], 3.31 µg/mL. In addition, the neutralization IC50 in experiment [27] is 0.0375 µg/mL; in [28], 0.103 µg/mL; in [29] it was 2.45 µg/mL; in [30], 0.161 µg/mL; in experiment [31], 0.048 µg/mL.
